Test results: patent publication US20090022714A1, “Combination methods of inhibiting tumor growth with a vascular endothelial growth factor receptor antagonist” (ImClone Systems, Inc., priority 2001, published 2009)

Target: chimeric receptor mouse flk-1 (VEGFR-2)/human fms expressed on transfected 3T3 cells (C441) (mouse; human) (UniProt P35918)
Experiment: cell-based or functional assay

Sequence of chimeric receptor mouse flk-1 (VEGFR-2)/human fms expressed on transfected 3T3 cells (C441) (mouse; human) (P35918 other isoform, or with tags, fused parts or gaps mutant limits assumed): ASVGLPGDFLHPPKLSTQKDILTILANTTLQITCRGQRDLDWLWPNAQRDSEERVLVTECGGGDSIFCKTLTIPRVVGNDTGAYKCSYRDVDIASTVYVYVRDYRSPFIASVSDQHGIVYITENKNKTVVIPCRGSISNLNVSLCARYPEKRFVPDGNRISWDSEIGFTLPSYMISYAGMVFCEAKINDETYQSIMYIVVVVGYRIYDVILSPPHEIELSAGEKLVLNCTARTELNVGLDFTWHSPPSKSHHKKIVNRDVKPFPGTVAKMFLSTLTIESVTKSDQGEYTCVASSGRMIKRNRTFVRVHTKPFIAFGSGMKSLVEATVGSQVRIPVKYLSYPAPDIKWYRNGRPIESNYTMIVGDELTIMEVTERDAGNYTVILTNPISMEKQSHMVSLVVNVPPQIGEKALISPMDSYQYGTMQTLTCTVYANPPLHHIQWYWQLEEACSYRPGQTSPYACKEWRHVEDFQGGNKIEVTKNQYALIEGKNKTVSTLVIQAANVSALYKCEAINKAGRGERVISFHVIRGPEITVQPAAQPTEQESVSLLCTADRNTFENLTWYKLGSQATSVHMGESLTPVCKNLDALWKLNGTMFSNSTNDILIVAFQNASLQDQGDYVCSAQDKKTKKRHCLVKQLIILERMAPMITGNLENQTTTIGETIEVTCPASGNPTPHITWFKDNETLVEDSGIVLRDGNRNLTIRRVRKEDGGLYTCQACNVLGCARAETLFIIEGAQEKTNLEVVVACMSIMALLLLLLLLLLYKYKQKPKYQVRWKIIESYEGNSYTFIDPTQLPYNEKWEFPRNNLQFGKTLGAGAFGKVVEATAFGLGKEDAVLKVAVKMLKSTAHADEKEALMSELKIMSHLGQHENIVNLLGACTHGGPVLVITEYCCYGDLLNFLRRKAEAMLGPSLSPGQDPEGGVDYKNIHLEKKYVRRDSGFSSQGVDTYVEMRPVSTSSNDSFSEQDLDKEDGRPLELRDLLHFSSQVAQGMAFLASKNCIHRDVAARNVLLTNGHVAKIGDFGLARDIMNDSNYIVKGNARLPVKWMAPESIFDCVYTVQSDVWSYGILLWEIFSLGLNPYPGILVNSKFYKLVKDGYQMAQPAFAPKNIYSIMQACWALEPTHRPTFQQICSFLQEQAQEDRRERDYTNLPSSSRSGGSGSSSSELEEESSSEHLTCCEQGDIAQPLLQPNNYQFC

- inhibition of receptor activation by ligand: < 1 µg/mL
- inhibition of receptor activation by ligand, prebound antibody: < 1 µg/mL
- phosphorylation level relative to the fully stimulated receptor control, antibody added with ligand (densitometry): 40%
- phosphorylation level relative to the fully stimulated receptor control, antibody prebound (densitometry): 6%
- phosphorylation of flk-1 (VEGFR-2), competitive antibody titration: > 0.5 µg/mL
B1: rat anti-mouse flk-1 (VEGFR-2) monoclonal antibody DC-101 (antibody, from another filing, rat IgG1, V domains shown)
VH: EVQLVETGGGLVQPGNSLKLSCATSGFIFSTTWMNWIRQTPGKRLEWLAQIEDKSNNYFISYSESVKGRFTISRDDSKSSVYLQMNNLKEEDTAIYYCSWKYRSNYYFDYWGQGVMVTVSS
VL: DIVLTQSPALAVSLEQRATISCKTSQNVDYYGISYLHWYQQKPGQQPKLLIYEGSNLASGIPARFSGSGSGTDFTLTIDPVEADDIVTYYCQQSKDYPYTFGAGTKLELKR
